Data from patent publication US20230293638A1 (Eli Lilly, published 2023).
Substitutions are numbered along the chain they refer to.

B1: Peptide 210 (peptide)
peptide: YXEGTXTSDYSIXLDXKAQXEFIXYLIEGGPSSGAPPPS
modifications: Aib2; αMeF(2F)6; αMeL13; Dap16; K17((2-[2-(2-Amino-ethoxy)-ethoxy]-acetyl)2-(γGlu)-CO-(CH2)16-CO2H); Aib20; D-Glu24; C-terminal NH2
B2: Peptide 216 (peptide)
peptide: B1 peptide with X16E
modifications: Aib2; αMeF(2F)6; αMeL13; K17((2-[2-(2-Amino-ethoxy)-ethoxy]-acetyl)2-(εK)-CO-(CH2)18-CO2H); Aib20; D-Glu24; C-terminal NH2
B3: Peptide 222 (peptide)
peptide: B1 peptide with X16E, Y25X
modifications: Aib2; αMeF(2F)6; αMeL13; K17((2-[2-(2-Amino-ethoxy)-ethoxy]-acetyl)2-(γGlu)-CO-(CH2)18-CO2H); Aib20; D-Glu24; αMeY25; C-terminal NH2
B4: Peptide 211 (peptide)
peptide: B1 peptide with X16K
modifications: Aib2; αMeF(2F)6; αMeL13; K17((2-[2-(2-Amino-ethoxy)-ethoxy]-acetyl)-(γGlu)-(2-[2-(2-Amino-ethoxy)-ethoxy]-acetyl)-CO-(CH2)18-CO2H); Aib20; D-Glu24; C-terminal NH2
B5: Peptide 224 (peptide)
peptide: B1 peptide with X16E
modifications: Aib2; αMeF(2F)6; Aib13; K17((2-[2-(2-Amino-ethoxy)-ethoxy]-acetyl)2-(γGlu)-CO-(CH2)18-CO2H); Aib20; D-Glu24; C-terminal NH2
B6: Peptide 242 (peptide)
peptide: B1 peptide with Y10V, E21A, Y25X
modifications: not fully specified; Aib2; αMeF(2F)6; αMeL13; Orn16; K17((2-[2-(2-Amino-ethoxy)-ethoxy]-acetyl)2-(γGlu)-CO-(CH2)16-CO2H); Aib20; D-Glu24; αMeY25; C-terminal NH2
B7: Peptide 236 (peptide)
peptide: B1 peptide with Y25X
modifications: not fully specified; Aib2; αMeF(2F)6; αMeL13; Orn16; K17((2-[2-(2-Amino-ethoxy)-ethoxy]-acetyl)2-(γGlu)-CO-(CH2)16-CO2H); Aib20; D-Glu24; αMeY25; C-terminal NH2
B8: Peptide 213 (peptide)
peptide: B1 peptide with X16E
modifications: Aib2; αMeF6; αMeL13; K17((2-[2-(2-Amino-ethoxy)-ethoxy]-acetyl)2-(γGlu)-CO-(CH2)16-CO2H); Aib20; D-Glu24; C-terminal NH2
B9: Peptide 241 (peptide)
peptide: B1 peptide with Y10V, E21T, Y25X
modifications: not fully specified; Aib2; αMeF(2F)6; αMeL13; Orn16; K17((2-[2-(2-Amino-ethoxy)-ethoxy]-acetyl)2-(γGlu)-CO-(CH2)16-CO2H); Aib20; D-Glu24; αMeY25; C-terminal NH2
B10: Peptide 227 (peptide)
peptide: B1 peptide with X16E
modifications: Aib2; αMeF6; αMeL13; K17((2-[2-(2-Amino-ethoxy)-ethoxy]-acetyl)2-(γGlu)-CO-(CH2)18-CO2H); Aib20; D-Glu24; C-terminal NH2
B11: Peptide 244 (peptide)
peptide: B1 peptide with Y10L, E21A, Y25X
modifications: not fully specified; Aib2; αMeF(2F)6; αMeL13; Orn16; K17((2-[2-(2-Amino-ethoxy)-ethoxy]-acetyl)2-(γGlu)-CO-(CH2)16-CO2H); Aib20; D-Glu24; αMeY25; C-terminal NH2
B12: Peptide 230 (peptide)
peptide: B1 peptide with X16H
modifications: Aib2; αMeF(2F)6; αMeL13; K17((2-[2-(2-Amino-ethoxy)-ethoxy]-acetyl)2-(γGlu)-CO-(CH2)18-CO2H); Aib20; D-Glu24; C-terminal NH2
B13: Peptide 215 (peptide)
peptide: B1 peptide with X16E
modifications: Aib2; αMeF(2F)6; αMeL13; K17((2-[2-(2-Amino-ethoxy)-ethoxy]-acetyl)2-CO-(CH2)18-CO2H); Aib20; D-Glu24; C-terminal NH2
B14: Peptide 239 (peptide)
peptide: B1 peptide with Y10X, E21T, Y25X
modifications: not fully specified; Aib2; αMeF(2F)6; 4Pal10; αMeL13; Orn16; K17((2-[2-(2-Amino-ethoxy)-ethoxy]-acetyl)2-(γGlu)-CO-(CH2)16-CO2H); Aib20; D-Glu24; αMeY25; C-terminal NH2
B15: Peptide 212 (peptide)
peptide: B1 peptide with X16K
modifications: Aib2; αMeF(2F)6; αMeL13; K17((2-[2-(2-Amino-ethoxy)-ethoxy]-acetyl)2-(γGlu)-CO-(CH2)18-CO2H); Aib20; D-Glu24; C-terminal NH2

Biological target: human GLP-1 receptor (human, UniProt P43220 24-463)
Assay: cell-based or functional assay

Binder	hGLPIR cAMP EC50 ratio
B1	1.03
B2	1.31
B3	1.55
B4	1.28
B5	1.06
B6	1.96
B7	1.65
B8	0.694
B9	1.89
B10	1.07
B11	1.29
B12	0.599
B13	0.813
B14	0.987
B15	0.771
